Here are results for one molecule from patent US20160083481A1 (INSERM INSTITUT NATIONAL DE LA SANT ET DE LA RECHERCHE M …, published 2016).

In assay [1] the target is T1, Glycophorin B in the crude glycophorins mixture (human, UniProt P06028 20-91).
T1 construct: mature; also called GPB
The experiment in a line: western blot of the crude glycophorins mixture, PVDF, with and without NaOH beta-elimination.

In assay [2] the target is T2, Purified glycophorin A (human, from red cell membranes) (human, UniProt P02724 20-150).
T2 construct: mature; also called GPA; Human Glycophorin A
T2 sequence (looked up): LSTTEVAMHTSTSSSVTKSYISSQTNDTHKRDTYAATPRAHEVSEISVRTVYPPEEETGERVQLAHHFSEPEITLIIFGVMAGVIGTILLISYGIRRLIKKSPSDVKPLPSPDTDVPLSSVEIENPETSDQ
The experiment in a line: SPR, Biacore X100, purified GPA amine-coupled on a CM5 chip (400 RU), IH4 as analyte, 1:1 Langmuir fit.
Protocol: SPR recordings obtained in a Biacore X100 apparatus.
SPR analysis of VHH interactions used a Biacore X100 apparatus (GE Healthcare). Purified GPA was immobilized on a CM5 chip in the Fc2 channel to a level of 400 Resonance units using amine coupling chemistry as recommended by the manufacturer. Reference channel Fc1 was simply activated and deactivated through ethanolamine. 6 different concentrations of analyte were injected onto the chip for 180 seconds, and dissociation let to proceed for 600 seconds. Data were analyzed using BIA Evaluation software associated to the apparatus.
Data can be easily fitted using 1:1 Langmuir fit.

B1: IH4 (VHH)
VHH: QVQLQESGGGSVQAGGSLRLSCVASGYTDSTYCVGWFRQAPGKEREGVARINTISGRPWYADSVKGRFTISQDNSKNTVFLQMNSLKPEDTAIYYCTLTTANSRGFCSGGYNYKGQGQVTVS
notes: also called VHH IH4; autonomous IH4; not shown: A polyhistidine tail is also present: C-terminal after the HA tag (pHEN6cPm)
In the case of B1, the binding result in assay [1] is “no binding”. In assay [2], the Kd (commonly the equilibrium constant for the complex coming apart) turned out to be 33.7 nM, the koff (usually the rate constant with which the complex falls apart) was determined as 0.019 s⁻¹ and the kon (usually the rate constant with which the complex forms) was found to be 573000 M⁻¹ s⁻¹.
